Source: publication PMC12541460

Key:
[1] = target: Mcm2-7 helicase labeled at the N terminus of Mcm6 with DyLight 650 (Mcm2-7^6N-650), used as Mcm2-7-Cdt1 (S. cerevisiae) (UniProt P29469); assay: FRET or BRET; single-molecule FRET with colocalisation (CoSMoS), Orc6-tether assay: donor DyLight 550 on Orc6 of ORC, acceptor DyLight 650 at the N terminus of Mcm6 of Mcm2-7; origin DNA attached to the slide; 0.5 to 1 nM ORC, 3 to 10 nM Cdc6, 10 to 15 nM Mcm2-7-Cdt1; 25 mM HEPES-KOH pH 7.6, 300 mM potassium glutamate, 5 mM Mg(OAc)2, 3 mM ATP; only events with ORC and Mcm2-7 both on DNA for at least five frames; the high E_FRET state is read as the Orc6N-Mcm2-7N (tether) interaction
[2] = target: Mcm2-7^6N-650 in complex with Cdt1 labeled with DyLight 650 (Mcm2-7^6N-650-Cdt1^C-650) (S. cerevisiae) (UniProt P29469)
[3] = target: Mcm2-7^6N-650 in complex with Cdt1 labeled with DyLight 650 (Mcm2-7^6N-650-Cdt1^C-650) (S. cerevisiae) (UniProt P29469); remark: listed apart in the source
[4] = target: Mcm2-7^6N-650 in complex with Cdt1 labeled with DyLight 650 (Mcm2-7^6N-650-Cdt1^C-650) (S. cerevisiae) (UniProt P29469); remark: listed apart in the source
[5] = target: Mcm2-7^6N-650 in complex with Cdt1 labeled with DyLight 650 (Mcm2-7^6N-650-Cdt1^C-650) (S. cerevisiae) (UniProt P29469); assay: FRET or BRET; single-molecule FRET with colocalisation (CoSMoS), Orc6-tether assay: donor DyLight 550 on Orc6 of ORC, acceptor DyLight 650 at the N terminus of Mcm6 of Mcm2-7; origin DNA attached to the slide; 0.5 to 1 nM ORC, 3 to 10 nM Cdc6, 10 to 15 nM Mcm2-7-Cdt1; 25 mM HEPES-KOH pH 7.6, 300 mM potassium glutamate, 5 mM Mg(OAc)2, 3 mM ATP; only events with ORC and Mcm2-7 both on DNA for at least five frames; the high E_FRET state is read as the Orc6N-Mcm2-7N (tether) interaction

With “CDK-phosphorylated ORC^6N-550 (Orc2 and Orc6 phosphorylated), P54784 1-914; P32833 1-620; P54790 1-616; P54791 1-529; P50874 1-479; P38826 1-435” the lifetime of the tether interaction, fold shorter than unphosphorylated ORC [1] was 2.5 fold, the median time of tether formation, fold of unphosphorylated ORC [1] was > 2 fold and the percent of recruited Mcm2-7 that exhibited a stable high E FRET (tether) state [1] was 53.9%.
“ORC that lacks Orc6N and has the Orc6 lnk1 region scrambled, labeled with DyLight 550 (ORC^6ΔN-lnk1scr-550) (from UniProt P54784 1-914; P32833 1-620; P54790 1-616; P54791 1-529; P50874 1-479; P38826 1-435) (complex)” showed an ORC molecules released within 7.8 s (three frames) after Cdt1 release [2] of 83%, an ORC molecules retained for more than 100 s on DNA after Cdt1 release (of 106 molecules) [2] of 0 and a percent of stably recruited Mcm2-7 that reached the high E FRET (tether) state [1] of 4.4%.
In the case of “ORC that lacks the Orc6 N-terminal domain, labeled with DyLight 550 (ORC^6ΔN-550) (from UniProt P54784 1-914; P32833 1-620; P54790 1-616; P54791 1-529; P50874 1-479; P38826 1-435) (complex)”, the ORC molecules released within 7.8 s (three frames) after Cdt1 release [2] is reported as 80%, the ORC molecules retained for more than 100 s on DNA after Cdt1 release (of 106 molecules) [2] is reported as 1 and the percent of stably recruited Mcm2-7 that reached the high E FRET (tether) state [1] is reported as 82.3%.
In the case of “ORC with the Orc6 lnk1 region (aa 120 to 185) scrambled, labeled with DyLight 550 (ORC^6-lnk1scr-550) (from UniProt P54784 1-914; P32833 1-620; P54790 1-616; P54791 1-529; P50874 1-479; P38826 1-435) (complex)”, the ORC molecules released after 7.8 s after Cdt1 release [2] is reported as 63%, the ORC molecules retained for longer than 100 s after Cdt1 release [2] is reported as 13% and the median lifetime of the tether interaction [1] is reported as 9.7 s. The median time to form the tether interaction, fold of WT ORC [1] was 2 fold.
Work on “origin recognition complex labeled at the Orc6 N-terminal region with DyLight 550 (ORC^6N-550), P54784 1-914; P32833 1-620; P54790 1-616; P54791 1-529; P50874 1-479; P38826 1-435” yielded a median time of ORC retention after Cdt1 release, Orc6 tether interaction absent at the time of Cdt1 release [3] of 3.8 s, a median time of ORC retention after Cdt1 release, Orc6 tether interaction present at the time of Cdt1 release [3] of 23.8 s and an ORC molecules released within 7.8 s (three frames) after Cdt1 release [2] of 39%. The ORC molecules retained for more than 100 s on DNA after Cdt1 release [2] was 24%, the ORC molecules released within one video frame (~2.6 s) after Cdt1 release, tether interaction present as Cdt1 was released [4] was 25% and the ORC molecules released within one video frame (~2.6 s) after Cdt1 release, tether not present as Cdt1 is released (of 33 molecules) [4] was 16. It also gave a median duration of the Orc6N-Mcm2-7N interaction [1] of 26.4 s, a median time to form the high E FRET state after Mcm2-7-Cdt1 recruitment [1] of 7.2 s and a percent of stably recruited Mcm2-7 that reached the high E FRET (tether) state [1] of 91.5%. For the same substance, the recruitment events in which a high E FRET (tether) state formed (of 162 events) [5] was 152.
